Measured values taken from FireProtDB (doi:10.1016/s0022-2836(03)00043-3).

B1: Cyclin-dependent kinase inhibitor 2A, P42771 (parent)
chain: MEPAAGSSMEPSADWLATAAARGRVEEVRALLEAGALPNAPNSYGRRPIQVMMMGSARVAELLLLHGAEPNCADPATLTRPVHDAAREGFLDTLVVLHRAGARLDVRDAWGRLPVDLAEELGHRDVARYLRAAAGGTRGSNHARIDAAEGPSDIPD

Variants of: B1
Conditions: Homo sapiens, pH 8.5, CD, Tris 10 mM, reversible: yes, structure 1A5E, whole UniProt chain shown; for ddG of mutation (higher = less stable) / denaturant m value / denaturant midpoint (higher = more stable) / unfolding free energy: 20 °C, Urea; for Tm / change of melting temperature, mutant - wild type (higher = more stable): Thermal

## W15D L37S L121R
  ddG of mutation (higher = less stable): -1.42 kcal/mol
  denaturant m value: 1.56 kcal/mol/M
  denaturant midpoint (higher = more stable): 2.8 M
  unfolding free energy: 4.77 kcal/mol

## L65K
  Tm: 47.2 °C
  change of melting temperature, mutant - wild type (higher = more stable): 1.2 °C

## T18R
  Tm: 45 °C
  change of melting temperature, mutant - wild type (higher = more stable): -1 °C

## L121R
  ddG of mutation (higher = less stable): -0.66 kcal/mol
  denaturant m value: 1.61 kcal/mol/M
  denaturant midpoint (higher = more stable): 2.4 M
  unfolding free energy: 4 kcal/mol
  Tm: 50.4 °C
  change of melting temperature, mutant - wild type (higher = more stable): 4.4 °C

## A73E
  Tm: 46.2 °C
  change of melting temperature, mutant - wild type (higher = more stable): 0.2 °C

## R128E
  Tm: 47.6 °C
  change of melting temperature, mutant - wild type (higher = more stable): 1.6 °C

## V95K
  Tm: 47 °C
  change of melting temperature, mutant - wild type (higher = more stable): 1 °C

## R124D
  Tm: 45.6 °C
  change of melting temperature, mutant - wild type (higher = more stable): -0.4 °C

## W15D
  ddG of mutation (higher = less stable): -0.17 kcal/mol
  denaturant m value: 1.74 kcal/mol/M
  denaturant midpoint (higher = more stable): 2.1 M
  unfolding free energy: 3.52 kcal/mol

## L37S
  ddG of mutation (higher = less stable): -0.71 kcal/mol
  denaturant m value: 1.82 kcal/mol/M
  denaturant midpoint (higher = more stable): 2.4 M
  unfolding free energy: 4.05 kcal/mol
  Tm: 50.3 °C
  change of melting temperature, mutant - wild type (higher = more stable): 4.3 °C
